# Laboratory results reported in paper PMC3420232, “The Transmembrane Domains of TNF-Related Apoptosis-Inducing Ligand (TRAIL) Receptors 1 and 2 Co-Regulate Apoptotic Signaling Capacity” (PLoS ONE, 2012).
# B1: Flag-tagged recombinant human TRAIL (sTRAIL), unlabeled (ligand, UniProt P50591 95-281, looked up)
# chain: TSEETISTVQEKQQNISPLVRERGPQRVAAHITGTRGRSNTLSSPNSKNEKALGRKINSWESSRSGHSFLSNLHLRNGELVIHEKGFYYIYSQTYFRFQEEIKENTKNDKQMVQYIYKYTSYPDPILLMKSARNSCWSKDAEYGLYSIYQGGIFELKENDRIFVSVTNEHLIDMDHEASFFGAFLVG
# notes: TRAIL (TNF-related apoptosis-inducing ligand), human, soluble recombinant form (sTRAIL); no removal of the tag is told; also called FLAG-TRAIL; non-labeled TRAIL; source: bought: Axxora (Lörrach, Germany)
# Target: T1, wild-type human TRAILR2 (human, UniProt O14763 56-440)
# T1 construct: TRAIL receptor 2 (TRAILR2, DR5), human, wild type; the printed numbers (transmembrane region ending at 231, GIIIG at 212-216, stalk of about 34 aa) fit the long form; also called DR5; TRICK2; source: immortalized mouse fibroblasts (MF), stably transfected, on cells
# Assay: radioligand binding; competition on cells: 4x10^5 murine fibroblasts expressing the (chimeric) TRAIL receptor in PFA (PBS, 2% FCS, 0.002% sodium azide), 83 ng/ml 125I-TRAIL with or without unlabeled recombinant human TRAIL (83-5300 ng/ml), 4 hours on ice; cells spun through phthalate oil; 68 kDa used for TRAIL
# Conditions: one partner purified
binder,measurement,value
B1,IC50,3.5 nM
